Assay results as given in paper PMC8584533, “Hetero/Homo-Complexes of Sucrose Transporters May Be a Subtle Mode to Regulate Sucrose Transportation in Grape Berries” (International Journal of Molecular Sciences, 2021).

T1: SUC11 (Chardonnay) (Vitis vinifera, UniProt Q9SQK6)
T1 construct: gene VvSUC11; full length, 500 residues, one site different from Thompson Seedless; expressed in yeast SUSY7/ura3
T1 sequence (Q9SQK6 1-501): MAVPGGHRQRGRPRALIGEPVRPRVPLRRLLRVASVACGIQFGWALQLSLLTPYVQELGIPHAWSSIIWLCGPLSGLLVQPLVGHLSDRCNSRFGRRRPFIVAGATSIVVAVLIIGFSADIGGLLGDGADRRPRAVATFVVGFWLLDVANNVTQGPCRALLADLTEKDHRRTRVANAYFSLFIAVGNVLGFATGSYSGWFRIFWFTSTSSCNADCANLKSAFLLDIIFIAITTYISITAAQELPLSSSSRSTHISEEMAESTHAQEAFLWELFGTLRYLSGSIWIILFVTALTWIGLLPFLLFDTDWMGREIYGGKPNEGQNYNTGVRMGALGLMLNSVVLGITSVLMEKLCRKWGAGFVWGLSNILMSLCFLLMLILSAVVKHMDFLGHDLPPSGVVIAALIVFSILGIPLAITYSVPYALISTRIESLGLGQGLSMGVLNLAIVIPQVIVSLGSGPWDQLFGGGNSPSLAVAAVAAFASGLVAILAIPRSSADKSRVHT


Experiments:
[1] = molecular target: T1, SUC11 (Chardonnay); assay: sucrose transport in yeast SUSY7/ura3; format: cell-based; conditions: 0.1, 0.2 and 2 mM sucrose
[2] = substrate: OC[C@H]1O[C@@](CO)(O[C@H]2O[C@H](CO)[C@@H](O)[C@H](O)[C@H]2O)[C@@H](O)[C@@H]1O; assay: cells, lysate or membranes; format: cell-based, Vitis vinifera; conditions: pH 5.0, 30 °C, 10 mM glucose, 20 min, expressed alone, labelled compound

Molecule | sucrose transport ability [1] | Km [2] [µM]
OC[C@H]1O[C@@](CO)(O[C@H]2O[C@H](CO)[C@@H](O)[C@H](O)[C@H]2O)[C@@H](O)[C@@H]1O [sucrose] | did not affect the structure (Figure S5a) or sucrose transport ability | –
VvSUC11 (Vitis vinifera) (protein, full length, 500 residues (printed), leaf cDNA in pDR196, expressed in yeast SUSY7/ura3) MAVPGGHRQRGRPRALIGEPVRPRVPLRRLLRVASVACGIQFGWALQLSLLTPYVQELGIPHAWSSIIWLCGPLSGLLVQPLVGHLSDRCNSRFGRRRPFIVAGATSIVVAVLIIGFSADIGGLLGDGADRRPRAVATFVVGFWLLDVANNVTQGPCRALLADLTEKDHRRTRVANAYFSLFIAVGNVLGFATGSYSGWFRIFWFTSTSSCNADCANLKSAFLLDIIFIAITTYISITAAQELPLSSSSRSTHISEEMAESTHAQEAFLWELFGTLRYLSGSIWIILFVTALTWIGLLPFLLFDTDWMGREIYGGKPNEGQNYNTGVRMGALGLMLNSVVLGITSVLMEKLCRKWGAGFVWGLSNILMSLCFLLMLILSAVVKHMDFLGHDLPPSGVVIAALIVFSILGIPLAITYSVPYALISTRIESLGLGQGLSMGVLNLAIVIPQVIVSLGSGPWDQLFGGGNSPSLAVAAVAAFASGLVAILAIPRSSADKSRVHT | – | 354
VvSUC12 (Vitis vinifera) (protein, full length, 611 residues (printed), leaf cDNA in pDR196, expressed in yeast SUSY7/ura3) MPETMDAPSIRVPYKNLKQAEVELVAADEPRHGADLNSRVPNGTSDPSSSPSSIPHPPKHGGLRTLILSCMIAAGVQFGWALQLSLLTPYIQTLGIEHAFSSFIWLCGPITGLVVQPCVGIWSDKCSSKYGRRRPFILAGSLMISVAVTIIGFSADIGYLLGDTNMDCRKFKGTRTWAAIIFVLGFWMLDLANNTVQGPARALLADLSGPDQRNSANAIFCSWMAVGNILGFSAGASGHWHRWFPFLLNKACCEACGNLKAAFLIAVVFLTLCTLVTLYFAEEVPLMAYQPHHLSDSAPLLDNPQQIGFDNSKSKLDMSAVDNATGNNPESSYEINKNAKHLTPIVQEQNESFSDGPGAVLVNLLTSLRHLPPAMHSVLLVMALSWLSWFPFFLFDTDWMGREVYHGDPKGDESAVKAYDAGVREGAFGLLLNSVDLGISSFLIEPMCQRMGARLVWAMSNFIVFACMAGTAIISLVSVNEYITEGIQHAIGENRAIKIASLVVFALLGFPLSITYSVPFSITAELTADTGGGQGLAIGVLNLAIVIPQMIVSLGAGPWDALFGGGNIPAFVLAALFALAAGVIATLKLPNLSSSSYKSSGFHFGNFPASMR | – | 943
VvSUC27 (Vitis vinifera) (protein, full length, 504 residues (printed), leaf cDNA in pDR196, expressed in yeast SUSY7/ura3) MELAKPSSVFAIQDHQSSSPPTPIWKTVVVASIAAGIQFGWALQLSLLTPYVQLLGIPHKWAAFIWLCGPISGMIVQPVVGYHSDRCTSRFGRRRPFIAAGAVLVAIAVFLIGYAADIGRVSGDPLHNTIKTRAVAVFVVGFWILDVANNMLQGPCRALLADLSGTSARRTRTANALYSFFMAVGNVLGYAAGSFSKLHKMFPFARTQACDLYCANLKSCFFLSIALLLILTIIAFATVHETPLNRADIAVVEAGQPFYSQMMNAFRQLRRPMWVLLLVTCLNWIGWFPFLLFDTDWMGREVYGGTVGEGPRGRLYDLGVRAGSLGLMLNSVVLGLMSLGVEFFGRGVGGVKRLWGGVNFLLALCLALTVLVSKLAASWRHSLGGELHPPPIGIKAGALSLFAVMGVPLAITYSIPFALASIFCHSSGAGQGLSLGVLNLAIVVPQMMVSVASGPWDARFGGGNLPAFVVGAFAAALNGVLALTMLPAPPPDVPNTKDERTQPSS | – | 3064
